Where no end group is shown, it is not given here.
B1: Peptide-264 (peptide)
peptide: VQIQCRPAWMCLGF
notes: From the Peptide-180 optimisation phage library
B2: Peptide-276 (peptide)
peptide: ITPICKPAWICSGF
notes: as for B1
B3: Peptide-261 (peptide)
peptide: YFVQCRPAWMCEGF
notes: as for B1
B4: Peptide-281 (peptide)
peptide: VNHWCVPTWMCAGF
notes: as for B1
B5: Peptide-278 (peptide)
peptide: PEHLCLPRWMCEGF
notes: as for B1
B6: Peptide-266 (peptide)
peptide: TAHHCKPAWMCTGF
notes: as for B1
B7: Peptide-265 (peptide)
peptide: AEVKCIPQWMCQGF
notes: as for B1
B8: Peptide-269 (peptide)
peptide: EEPLCRPVWMCEGF
notes: as for B1
B9: Peptide-272 (peptide)
peptide: LHVYCVPEWMCAGF
notes: as for B1
B10: Peptide-273 (peptide)
peptide: LEPLCVPRWMCVGF
notes: as for B1
B11: Peptide-287 (peptide)
peptide: PERLCTPPWMCLGF
notes: as for B1
B12: Peptide-280 (peptide)
peptide: TTHVCIPSWMCSGF
notes: as for B1
B13: Peptide-279 (peptide)
peptide: YERACIPNWICEGF
notes: as for B1
B14: Peptide-262 (peptide)
peptide: IVPLCKPAWMCKLF
notes: as for B1
B15: Phage-50 clonal phage peptide (peptide, not shown: large carriers)
peptide: MDWCPPYLWNVCFS
modifications: cysteine pairing not given here; also: displayed on phage by fusion to pIII, linker and pIII sequence not given here
B16: Phage-52 clonal phage peptide (peptide, not shown: large carriers)
peptide: MDWCPINLWDECFS
modifications: cysteine pairing not given here; also: displayed on phage by fusion to pIII, linker and pIII sequence not given here
B17: Phage-54 clonal phage peptide (peptide, not shown: large carriers)
peptide: MNWCPRDMWYQCFN
modifications: cysteine pairing not given here; also: displayed on phage by fusion to pIII, linker and pIII sequence not given here
B18: Phage-53 clonal phage peptide (peptide, not shown: large carriers)
peptide: MDWCPMHLWNKCFN
modifications: cysteine pairing not given here; also: displayed on phage by fusion to pIII, linker and pIII sequence not given here
B19: Phage-51 clonal phage peptide (peptide, not shown: large carriers)
peptide: MDWCPMDLWDYCFN
modifications: cysteine pairing not given here; also: displayed on phage by fusion to pIII, linker and pIII sequence not given here
B20: Phage-49 clonal phage peptide (peptide, not shown: large carriers)
peptide: MSWCPIHLWNECFN
modifications: cysteine pairing not given here; also: displayed on phage by fusion to pIII, linker and pIII sequence not given here
B21: Phage-55 clonal phage peptide (peptide, not shown: large carriers)
peptide: QDWCPRHMWSFCFH
modifications: cysteine pairing not given here; also: displayed on phage by fusion to pIII, linker and pIII sequence not given here

Target: T1, PSMA Fab
T1 construct: also called 006 PSMA Fab; anti-PSMA Fab
Assay: competition ELISA; peptide 0-100 µM with 0.3 nM PSMA Fab on plate-captured biotinylated PSMA

Row | Binder | IC50
1 | B1 | 1140 nM
2 | B2 | 3460 nM
3 | B3 | 1300 nM
4 | B4 | 1020 nM
5 | B5 | 2400 nM
6 | B6 | 1810 nM
7 | B7 | 1780 nM
8 | B8 | 9140 nM
9 | B9 | 1920 nM
10 | B10 | 900 nM
11 | B11 | 2220 nM
12 | B12 | 6650 nM
13 | B13 | 5180 nM
14 | B14 | 1300 nM

Target: T1, PSMA Fab
Assay: as above
Remark: another data set of the same source

Row | Binder | IC50
15 | FEKWCTPPWMCSLF [Peptide-222] | 4160 nM
16 | IDKLCIPFWMCENL [Peptide-221] | 2130 nM
17 | VVKACIPTWMCQFV [Peptide-229] | 4070 nM
18 | LEKTCIPTWMCVGF [Peptide-234] | 2080 nM
19 | LTKLCIPDWMCSEF [Peptide-226] | 2680 nM
20 | ISKWCIPEWMCTSP [Peptide-237] | 2700 nM
21 | DLRLCKPAWMCYFI [Peptide-223] | 1470 nM
22 | DLRLCKPAWMCDFI [Peptide-231] | 1270 nM
23 | WEKLCTPAWMCVGF [Peptide-214] | 3540 nM
24 | LEKLCIPAWMCEWL [Peptide-215] | 2940 nM
25 | EFKWCIPSWMCHET [Peptide-228] | 1920 nM
26 | VLKWCRPAWMCEVL [Peptide-216] | 2910 nM
27 | FVPLCKPAWMCSFV [Peptide-218] | 2850 nM
28 | EGIRCTPIWMCEGF [Peptide-224] | 1880 nM
29 | FEKLCVPKWMCEGI [Peptide-220] | 1570 nM
30 | LEKLCKPAWMCVNF [Peptide-238] | 1550 nM
31 | VGKLCVPEWMCVGL [Peptide-217] | 2490 nM

Target: T2, Anti-CD28 scFv (VH - linker 1 - VL) (biotinylated (site not stated))
Assay: phage binding ELISA on captured anti-CD28 scFv; wells pre-incubated with soluble CD28 protein (competitor)

T2 sequence (scFv, as listed by the source): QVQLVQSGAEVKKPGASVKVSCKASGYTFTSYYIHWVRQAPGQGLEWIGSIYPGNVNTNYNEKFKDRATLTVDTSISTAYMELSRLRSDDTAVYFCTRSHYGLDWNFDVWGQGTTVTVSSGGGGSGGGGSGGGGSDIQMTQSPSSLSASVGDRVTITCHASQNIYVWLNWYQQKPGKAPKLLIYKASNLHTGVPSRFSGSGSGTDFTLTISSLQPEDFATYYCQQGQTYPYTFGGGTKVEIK

Row | Binder | CD28 scFv signal in presence of CD28
32 | MAWCPVYLWHECFN (peptide, not shown: large carriers) [Phage-47 clonal phage peptide] | 0.351
33 | MAWCPRDKWSECFS (peptide, not shown: large carriers) [Phage-41 clonal phage peptide] | 0.147
34 | B15 | 0.1
35 | MHWCPIDLWAECYA (peptide, not shown: large carriers, cysteine pairing not given here; also: displayed on phage, fused to pIII) [Phage-46 clonal phage peptide] | 0.225
36 | MHWCPIDRWADCFN (peptide, not shown: large carriers) [Phage-58 clonal phage peptide] | 0.077
37 | B16 | 0.096
38 | MHWCPMDQWSNCFN (peptide, not shown: large carriers) [Phage-56 clonal phage peptide] | 0.084
39 | MDWCPRDSWHLCFA (peptide, not shown: large carriers) [Phage-59 clonal phage peptide] | 0.147
40 | MDWCPRPLWHECFS (peptide, not shown: large carriers) [Phage-45 clonal phage peptide] | 0.121
41 | MDWCPSYLWNECFF (peptide, not shown: large carriers) [Phage-62 clonal phage peptide] | 0.133
42 | MVSCPTTMWNRCFN (peptide, not shown: large carriers) [Phage-61 clonal phage peptide] | 0.072
43 | MDWCPIDMWDQCFN (peptide, not shown: large carriers) [Phage-40 clonal phage peptide] | 0.297
44 | B17 | 0.177
45 | B18 | 0.122
46 | IDWCPRYLWDECYN (peptide, not shown: large carriers) [Phage-48 clonal phage peptide] | 0.153
47 | MDWCPRHRWVDCFY (peptide, not shown: large carriers) [Phage-57 clonal phage peptide] | 0.11
48 | B19 | 0.107
49 | MDWCPRTLWYLCFN (peptide, not shown: large carriers) [Phage-60 clonal phage peptide] | 1.2
50 | MDWCPRHLWVHCFN (peptide, not shown: large carriers) [Phage-42 clonal phage peptide] | 0.254
51 | B20 | 0.284
52 | B21 | 0.081
53 | MDWCPIALWAECFN (peptide, not shown: large carriers) [Phage-44 clonal phage peptide] | 0.224
54 | MDWCPRALWAECFN (peptide, not shown: large carriers) [Phage-64 clonal phage peptide] | 0.339

Target: T2, Anti-CD28 scFv (VH - linker 1 - VL)
Assay: phage binding ELISA; biotinylated anti-CD28 scFv on neutravidin plate, clonal phage supernatant, anti-M13 HRP detection
Protocol: Clonal phage were harvested as crude supernatants and screened via standard enzyme linked immunosorbent assays (ELISAs). […] Prior to the addition of clonal phage, wells were incubated with blocking buffer and CD28 soluble protein or blocking buffer alone. Without washing or aspirating, clonal phage supernatants were then added to the wells and incubated for a short time. Wells were then washed followed by detection of bound phage using a horse radish peroxidase conjugated anti-M13 antibody.

Row | Binder | CD28 scFv signal
55 | MAWCPVYLWHECFN (peptide, not shown: large carriers) [Phage-47 clonal phage peptide] | 2.27
56 | MAWCPRDKWSECFS (peptide, not shown: large carriers) [Phage-41 clonal phage peptide] | 0.853
57 | B15 | 1.64
58 | MHWCPIDLWAECYA (peptide, not shown: large carriers, cysteine pairing not given here; also: displayed on phage, fused to pIII) [Phage-46 clonal phage peptide] | 2.28
59 | MHWCPIDRWADCFN (peptide, not shown: large carriers) [Phage-58 clonal phage peptide] | 0.287
60 | B16 | 1.5
61 | MHWCPMDQWSNCFN (peptide, not shown: large carriers) [Phage-56 clonal phage peptide] | 0.515
62 | MDWCPRDSWHLCFA (peptide, not shown: large carriers) [Phage-59 clonal phage peptide] | 2.45
63 | MDWCPRPLWHECFS (peptide, not shown: large carriers) [Phage-45 clonal phage peptide] | 2.35
64 | MDWCPSYLWNECFF (peptide, not shown: large carriers) [Phage-62 clonal phage peptide] | 2
65 | MVSCPTTMWNRCFN (peptide, not shown: large carriers) [Phage-61 clonal phage peptide] | 1.33
66 | MDWCPIDMWDQCFN (peptide, not shown: large carriers) [Phage-40 clonal phage peptide] | 2.66
67 | B17 | 1.95
68 | B18 | 1.04
69 | IDWCPRYLWDECYN (peptide, not shown: large carriers) [Phage-48 clonal phage peptide] | 2.24
70 | MDWCPRHRWVDCFY (peptide, not shown: large carriers) [Phage-57 clonal phage peptide] | 0.478
71 | B19 | 1.64
72 | MDWCPRTLWYLCFN (peptide, not shown: large carriers) [Phage-60 clonal phage peptide] | 2.59
73 | MDWCPRHLWVHCFN (peptide, not shown: large carriers) [Phage-42 clonal phage peptide] | 2.5
74 | B20 | 2.06
75 | B21 | 0.074
76 | MDWCPIALWAECFN (peptide, not shown: large carriers) [Phage-44 clonal phage peptide] | 2.46
77 | MDWCPRALWAECFN (peptide, not shown: large carriers) [Phage-64 clonal phage peptide] | 2.68
